Experimental data: article PMC6723713, “Purification, Characterization and Evaluation of Inhibitory Mechanism of ACE Inhibitory Peptides from Pearl Oyster (Pinctada fucata martensii) Meat Protein Hydrolysate” (Marine Drugs, 2019)
Like-named read-outs stand apart in the source and are kept apart here.

Experiments:
[1] = target: T1, Angiotensin I converting enzyme (UniProt P12822)
T1 sequence: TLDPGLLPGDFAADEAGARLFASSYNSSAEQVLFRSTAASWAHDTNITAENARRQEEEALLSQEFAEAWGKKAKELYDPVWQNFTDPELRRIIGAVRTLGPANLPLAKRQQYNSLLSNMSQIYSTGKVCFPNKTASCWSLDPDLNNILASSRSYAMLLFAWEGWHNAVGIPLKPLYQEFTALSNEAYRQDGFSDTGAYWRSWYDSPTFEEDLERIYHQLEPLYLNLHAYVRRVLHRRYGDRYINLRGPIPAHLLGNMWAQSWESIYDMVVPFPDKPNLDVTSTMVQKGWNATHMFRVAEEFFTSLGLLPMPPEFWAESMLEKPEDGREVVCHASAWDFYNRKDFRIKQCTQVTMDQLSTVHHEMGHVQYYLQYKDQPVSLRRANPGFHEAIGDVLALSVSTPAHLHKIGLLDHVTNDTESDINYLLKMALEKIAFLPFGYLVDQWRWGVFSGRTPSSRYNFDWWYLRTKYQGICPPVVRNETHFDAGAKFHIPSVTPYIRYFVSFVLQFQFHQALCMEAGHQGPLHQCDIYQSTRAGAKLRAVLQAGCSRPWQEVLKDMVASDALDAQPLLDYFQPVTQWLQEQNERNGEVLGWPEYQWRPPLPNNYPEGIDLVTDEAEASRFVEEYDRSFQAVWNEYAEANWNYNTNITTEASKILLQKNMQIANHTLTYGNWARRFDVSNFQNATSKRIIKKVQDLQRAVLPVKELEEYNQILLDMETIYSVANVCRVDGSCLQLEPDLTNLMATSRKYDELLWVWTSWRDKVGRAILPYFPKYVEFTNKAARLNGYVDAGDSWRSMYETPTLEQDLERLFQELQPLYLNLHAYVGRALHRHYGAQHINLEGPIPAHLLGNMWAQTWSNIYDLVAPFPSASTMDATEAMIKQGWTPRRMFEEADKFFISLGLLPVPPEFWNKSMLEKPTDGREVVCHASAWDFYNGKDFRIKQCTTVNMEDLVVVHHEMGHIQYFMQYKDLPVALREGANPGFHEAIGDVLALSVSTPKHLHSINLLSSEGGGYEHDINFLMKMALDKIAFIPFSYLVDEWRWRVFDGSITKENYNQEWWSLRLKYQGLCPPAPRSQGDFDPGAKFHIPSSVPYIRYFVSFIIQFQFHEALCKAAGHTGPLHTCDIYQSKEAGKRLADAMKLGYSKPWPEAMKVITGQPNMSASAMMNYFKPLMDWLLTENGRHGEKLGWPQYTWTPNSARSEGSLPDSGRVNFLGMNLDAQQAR

[2] = target: T1, Angiotensin I converting enzyme; remark: listed apart in the source
ACE = target: T2, ACE (Oryctolagus cuniculus, UniProt P12822); details: cited from earlier work
T2 construct: purchased Sigma-Aldrich (Shanghai, China)
T2 sequence (P12822 34-1310): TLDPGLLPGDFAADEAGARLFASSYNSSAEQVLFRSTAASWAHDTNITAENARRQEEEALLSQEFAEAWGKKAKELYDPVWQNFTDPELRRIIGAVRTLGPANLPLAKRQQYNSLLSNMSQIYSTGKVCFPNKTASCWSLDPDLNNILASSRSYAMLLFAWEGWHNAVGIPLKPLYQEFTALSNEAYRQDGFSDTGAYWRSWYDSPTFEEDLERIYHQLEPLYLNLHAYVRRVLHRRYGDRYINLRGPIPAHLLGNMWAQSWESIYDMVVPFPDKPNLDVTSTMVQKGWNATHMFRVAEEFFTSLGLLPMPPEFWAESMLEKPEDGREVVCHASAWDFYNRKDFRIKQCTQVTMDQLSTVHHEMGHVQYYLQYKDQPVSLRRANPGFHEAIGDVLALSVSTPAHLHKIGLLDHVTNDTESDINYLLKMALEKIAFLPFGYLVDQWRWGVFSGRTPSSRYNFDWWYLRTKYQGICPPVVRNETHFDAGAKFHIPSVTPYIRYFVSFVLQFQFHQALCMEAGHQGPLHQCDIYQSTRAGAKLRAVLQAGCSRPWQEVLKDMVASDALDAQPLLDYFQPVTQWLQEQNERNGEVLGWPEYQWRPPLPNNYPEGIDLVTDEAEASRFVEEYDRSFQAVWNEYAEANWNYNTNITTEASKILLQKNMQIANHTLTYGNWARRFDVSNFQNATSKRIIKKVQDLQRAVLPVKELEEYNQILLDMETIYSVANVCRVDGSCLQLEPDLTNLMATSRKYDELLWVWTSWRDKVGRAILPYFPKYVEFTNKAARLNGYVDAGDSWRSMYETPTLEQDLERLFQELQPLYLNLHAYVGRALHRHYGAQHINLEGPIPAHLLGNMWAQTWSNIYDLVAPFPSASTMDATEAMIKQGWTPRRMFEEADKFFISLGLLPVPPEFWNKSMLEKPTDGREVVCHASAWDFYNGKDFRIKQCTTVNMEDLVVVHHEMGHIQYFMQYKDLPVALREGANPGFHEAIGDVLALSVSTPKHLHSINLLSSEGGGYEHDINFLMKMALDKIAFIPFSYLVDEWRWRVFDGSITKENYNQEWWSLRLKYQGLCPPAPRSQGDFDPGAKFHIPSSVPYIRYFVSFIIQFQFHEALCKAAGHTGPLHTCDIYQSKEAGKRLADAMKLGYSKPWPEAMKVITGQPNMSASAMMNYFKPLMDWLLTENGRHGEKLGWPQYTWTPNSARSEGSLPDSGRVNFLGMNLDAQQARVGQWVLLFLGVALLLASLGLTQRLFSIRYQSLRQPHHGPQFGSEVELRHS
From the text: Table 2 Summary of ACE inhibitory peptides having similar structure with purified peptides. | column: IC50 (μM) || Table 3 Inhibition pattern of ACE inhibitory peptides derived from marine products. | column: Inhibition Pattern; IC50 (μM)

Gly-Trp-Ala, purified from pearl oyster meat protein hydrolysate (fraction F62) (peptide)
IC50 of ACE inhibitory activity (enzyme activity on HHL), peptide purified from POMPH [1]: 109 µM | ACE inhibitory activity (%) of fraction F62 at a protein concentration of 0.54 mg/mL [2]: 84.7%

Gly-Trp-Ala, synthesized (peptide)
IC50 of ACE inhibitory activity (enzyme activity on HHL), synthesized peptide [1]: 98.9 µM

HLPLP
IC50 (ACE; ref [28]): 41 µM

HLPLPLL
IC50 (ACE; ref [28]): 34.4 µM

IWHHT
IC50 (ACE; ref [28]): 5.1 µM

VELYP
IC50 (ACE; ref [34]): 5.22 µM | Inhibition Pattern (ACE; ref [34]): Non-competitive

VVYPWTTQRF
IC50 (ACE; ref [35]): 66 µM | Inhibition Pattern (ACE; ref [35]): Non-competitive

VWDPPKFD
IC50 (ACE; ref [31]): 9.1 µM | Inhibition Pattern (ACE; ref [31]): Non-competitive

VWYHT
IC50 (ACE; ref [28]): 28.3 µM

HLHT [His-Leu-His-Thr, purified from pearl oyster meat protein hydrolysate (fraction F51)]
IC50 of ACE inhibitory activity (enzyme activity on HHL), peptide purified from POMPH [1]: 458 µM | ACE inhibitory activity (%) of fraction F51 at a protein concentration of 0.54 mg/mL [2]: 64.7%

HLHT [His-Leu-His-Thr, synthesized]
IC50 of ACE inhibitory activity (enzyme activity on HHL), synthesized peptide [1]: 452 µM
